The record followed here is the Immune Epitope Database (IEDB).

Targets include HLA-A*03:01; HLA-A*68:01; HLA-A*31:01; HLA-A*33:01; HLA-A*11:01.
Assay in all cases: IEDB peptide-MHC binding, purified MHC/competitive/radioactivity; filed as Kd, often an IC50 or EC50 that approximates it; ≥ and ≤ were set here for values at or beyond the usual limits of such assays
Where [1] appears, read: source organism: Vaccinia virus WR.
Where [2] appears, read: source organism: SARS coronavirus Tor2.
Setting [3] is: source organism: Mammarenavirus lassaense.

On to IAEFVKENER, for which the Kd is no less than 70100 nM with HLA-A*03:01 (setting [1]); 169 nM with HLA-A*68:01 (setting [1]); 1690 nM in the assay with HLA-A*31:01 (setting [1]); 5580 nM in the assay with HLA-A*33:01 (setting [1]); no less than 30700 nM with HLA-A*11:01 (setting [1]).

On to ILGGVLHTK, for which the Kd is 1.92 nM with HLA-A*03:01 (setting [1]); 558 nM with HLA-A*68:01 (setting [1]); 1380 nM in the assay with HLA-A*31:01 (setting [1]); 6160 nM with HLA-A*33:01 (setting [1]); 19.3 nM in the assay with HLA-A*11:01 (setting [1]).

Take ILMKTANNY: the Kd with HLA-A*03:01 (setting [1]) is 325 nM; with HLA-A*68:01 (setting [1]), no less than 20900 nM; in the assay with HLA-A*31:01 (setting [1]), no less than 77900 nM; with HLA-A*33:01 (setting [1]) it was no less than 77700 nM; with HLA-A*11:01 (setting [1]), 287 nM.

ILSDIISAEK: the Kd was found to be 0.501 nM with HLA-A*03:01 (setting [1]); 4.29 nM with HLA-A*68:01 (setting [1]); 14.5 nM with HLA-A*31:01 (setting [1]); 1380 nM with HLA-A*33:01 (setting [1]); 0.829 nM with HLA-A*11:01 (setting [1]).

Turning to IMLEGETKLY, the Kd in the assay with HLA-A*03:01 (setting [1]) is 1610 nM; in the assay with HLA-A*68:01 (setting [1]), 1010 nM; with HLA-A*31:01 (setting [1]), no less than 55800 nM; with HLA-A*33:01 (setting [1]) it was no less than 41100 nM; with HLA-A*11:01 (setting [1]) it was 5110 nM.

As to ISRTRLYDY, the Kd in the assay with HLA-A*03:01 (setting [1]) is 176 nM; in the assay with HLA-A*68:01 (setting [1]) it was no less than 42900 nM; with HLA-A*31:01 (setting [1]), 1240 nM; with HLA-A*33:01 (setting [1]), 2190 nM; with HLA-A*11:01 (setting [1]), 1410 nM.

Regarding ISSKQYPAGR, the dissociation constant (Kd) in the assay with HLA-A*03:01 (setting [1]) was 1020 nM; with HLA-A*68:01 (setting [1]), 8.59 nM; with HLA-A*31:01 (setting [1]) it was 5.62 nM; with HLA-A*33:01 (setting [1]) it was 317 nM; with HLA-A*11:01 (setting [1]) it was 128 nM.

As to IVHSYLKNY, the dissociation constant (Kd) is no less than 21600 nM with HLA-A*03:01 (setting [1]); no less than 23800 nM with HLA-A*68:01 (setting [1]); no less than 25500 nM with HLA-A*31:01 (setting [1]); no less than 77700 nM with HLA-A*33:01 (setting [1]); 1230 nM with HLA-A*11:01 (setting [1]).

IVHSYLKNYK: the Kd was found to be 97.3 nM with HLA-A*03:01 (setting [1]); 257 nM in the assay with HLA-A*68:01 (setting [1]); 27.5 nM in the assay with HLA-A*31:01 (setting [1]); 9720 nM with HLA-A*33:01 (setting [1]); 58 nM with HLA-A*11:01 (setting [1]).

For the sequence IVRTMPNESR, the Kd with HLA-A*03:01 (setting [1]) came to 241 nM; in the assay with HLA-A*68:01 (setting [1]) it was 401 nM; with HLA-A*31:01 (setting [1]) it was 4820 nM; in the assay with HLA-A*33:01 (setting [1]), 10700 nM; with HLA-A*11:01 (setting [1]), 16100 nM.

KIKTNDINVR: the Kd was 2910 nM with HLA-A*03:01 (setting [1]); 9080 nM with HLA-A*68:01 (setting [1]); 103 nM with HLA-A*31:01 (setting [1]); no less than 21000 nM with HLA-A*33:01 (setting [1]); 11300 nM with HLA-A*11:01 (setting [1]).

Turning to KSIHLTKTDK, the Kd was 107 nM with HLA-A*03:01 (setting [1]); 416 nM in the assay with HLA-A*68:01 (setting [1]); 313 nM with HLA-A*31:01 (setting [1]); no less than 70000 nM in the assay with HLA-A*33:01 (setting [1]); 19.8 nM in the assay with HLA-A*11:01 (setting [1]).

Turning to KTSKTTILSK, the Kd is 44.4 nM with HLA-A*03:01 (setting [1]); 3960 nM with HLA-A*68:01 (setting [1]); 311 nM with HLA-A*31:01 (setting [1]); no less than 70000 nM with HLA-A*33:01 (setting [1]); 96.4 nM with HLA-A*11:01 (setting [1]).

Consider LFDFVNFVK, for which the Kd with HLA-A*03:01 (setting [1]) turned out to be 812 nM; in the assay with HLA-A*68:01 (setting [1]) it was 128 nM; with HLA-A*31:01 (setting [1]), 798 nM; with HLA-A*33:01 (setting [1]), 9100 nM; with HLA-A*11:01 (setting [1]), 145 nM.

On to LFKNLATSIY, for which the Kd in the assay with HLA-A*03:01 (setting [1]) was no less than 41700 nM; with HLA-A*68:01 (setting [1]), 19900 nM; with HLA-A*31:01 (setting [1]), no less than 37100 nM; in the assay with HLA-A*33:01 (setting [1]), no less than 70000 nM; with HLA-A*11:01 (setting [1]) it was no less than 69800 nM.

Consider LFQLCTFTK, for which the Kd with HLA-A*03:01 (setting [2]) amounted to 438 nM; with HLA-A*68:01 (setting [2]) it was 579 nM; in the assay with HLA-A*31:01 (setting [2]), 574 nM; with HLA-A*33:01 (setting [2]), 875 nM; in the assay with HLA-A*11:01 (setting [2]), 191 nM.

LIKFISDNK: the Kd in the assay with HLA-A*03:01 (setting [1]) was found to be 151 nM; with HLA-A*68:01 (setting [1]), 1.1 nM; in the assay with HLA-A*31:01 (setting [1]), 120 nM; in the assay with HLA-A*33:01 (setting [1]) it was 624 nM; with HLA-A*11:01 (setting [1]), 222 nM.

In the case of LLMPILTLTR, the Kd was found to be 571 nM with HLA-A*03:01 (setting [2]); 89.7 nM with HLA-A*68:01 (setting [2]); 5.53 nM in the assay with HLA-A*31:01 (setting [2]); 262 nM in the assay with HLA-A*33:01 (setting [2]); 199 nM in the assay with HLA-A*11:01 (setting [2]).

With LSCTKNTSHH, the Kd was no less than 70000 nM with HLA-A*03:01 (setting [3]); no less than 43700 nM with HLA-A*68:01 (setting [3]); no less than 43100 nM with HLA-A*31:01 (setting [3]); no less than 70000 nM with HLA-A*33:01 (setting [3]); no less than 69700 nM in the assay with HLA-A*11:01 (setting [3]).

As to LSDENYLLK, the Kd is 591 nM with HLA-A*03:01 (setting [1]); 13500 nM in the assay with HLA-A*68:01 (setting [1]); 1500 nM in the assay with HLA-A*31:01 (setting [1]); no less than 66100 nM with HLA-A*33:01 (setting [1]); 1.59 nM with HLA-A*11:01 (setting [1]).

Take LSYIYSEIK: the Kd came to 26 nM with HLA-A*03:01 (setting [1]); 252 nM in the assay with HLA-A*68:01 (setting [1]); 8600 nM with HLA-A*31:01 (setting [1]); 1590 nM with HLA-A*33:01 (setting [1]); 27.3 nM in the assay with HLA-A*11:01 (setting [1]).

As to LVYFSTQQNK, the Kd was 0.977 nM in the assay with HLA-A*03:01 (setting [1]); 4.03 nM in the assay with HLA-A*68:01 (setting [1]); 5230 nM with HLA-A*31:01 (setting [1]); no less than 44600 nM in the assay with HLA-A*33:01 (setting [1]); 1.56 nM in the assay with HLA-A*11:01 (setting [1]).

Regarding MLEGETKLYK, the Kd is 20.6 nM with HLA-A*03:01 (setting [1]); 9180 nM with HLA-A*68:01 (setting [1]); no less than 50400 nM with HLA-A*31:01 (setting [1]); no less than 70000 nM in the assay with HLA-A*33:01 (setting [1]); 63.4 nM in the assay with HLA-A*11:01 (setting [1]).

In general, Kd refers to a measure of binding affinity in units of concentration.
